The values below come from patent US20100204147A1, “Methods For Delivering Thymosin Beta 4, Analogues, Isoforms and Other Derivatives” (REGENERX BIOPHARMACEUTICALS, INC., priority 2003, published 2010).

This assay has as its target T1, fibrinogen (Homo sapiens, UniProt P02671).
T1 construct: purchased Enzyme Research Laboratories (South Bend, Ind.)
T1 sequence (P02671 20-644 isoform P02671-2 limits assumed): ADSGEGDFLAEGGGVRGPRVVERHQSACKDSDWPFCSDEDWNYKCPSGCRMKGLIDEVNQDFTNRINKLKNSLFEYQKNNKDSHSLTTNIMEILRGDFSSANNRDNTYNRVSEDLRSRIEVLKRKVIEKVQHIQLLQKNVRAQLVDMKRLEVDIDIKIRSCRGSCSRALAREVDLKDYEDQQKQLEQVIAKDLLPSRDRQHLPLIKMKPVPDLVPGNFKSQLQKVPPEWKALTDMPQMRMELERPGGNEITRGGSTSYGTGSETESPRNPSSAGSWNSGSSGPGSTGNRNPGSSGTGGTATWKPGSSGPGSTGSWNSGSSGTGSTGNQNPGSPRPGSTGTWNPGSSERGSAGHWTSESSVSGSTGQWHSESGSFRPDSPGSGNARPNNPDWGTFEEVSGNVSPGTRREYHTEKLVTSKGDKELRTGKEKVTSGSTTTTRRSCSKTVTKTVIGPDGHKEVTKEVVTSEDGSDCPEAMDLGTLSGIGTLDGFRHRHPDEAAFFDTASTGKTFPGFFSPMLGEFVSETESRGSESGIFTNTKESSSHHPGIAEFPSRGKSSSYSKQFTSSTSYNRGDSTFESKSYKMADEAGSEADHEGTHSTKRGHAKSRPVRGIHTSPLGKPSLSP
T1 sequence (P02675 31-491 partner): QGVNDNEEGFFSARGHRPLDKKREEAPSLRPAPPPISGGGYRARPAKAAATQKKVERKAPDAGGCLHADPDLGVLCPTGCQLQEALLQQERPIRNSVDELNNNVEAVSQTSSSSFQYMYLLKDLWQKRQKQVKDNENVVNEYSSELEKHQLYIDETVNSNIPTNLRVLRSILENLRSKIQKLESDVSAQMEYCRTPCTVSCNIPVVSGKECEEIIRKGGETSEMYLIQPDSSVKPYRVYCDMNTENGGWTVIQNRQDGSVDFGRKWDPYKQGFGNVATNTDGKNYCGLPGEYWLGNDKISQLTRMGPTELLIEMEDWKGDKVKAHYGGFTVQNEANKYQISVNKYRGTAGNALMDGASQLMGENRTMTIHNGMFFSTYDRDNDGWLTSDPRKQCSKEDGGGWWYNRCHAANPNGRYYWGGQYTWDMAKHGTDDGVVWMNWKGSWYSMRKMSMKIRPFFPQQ
T1 sequence (P02679 27-437 isoform P02679-2 partner limits assumed): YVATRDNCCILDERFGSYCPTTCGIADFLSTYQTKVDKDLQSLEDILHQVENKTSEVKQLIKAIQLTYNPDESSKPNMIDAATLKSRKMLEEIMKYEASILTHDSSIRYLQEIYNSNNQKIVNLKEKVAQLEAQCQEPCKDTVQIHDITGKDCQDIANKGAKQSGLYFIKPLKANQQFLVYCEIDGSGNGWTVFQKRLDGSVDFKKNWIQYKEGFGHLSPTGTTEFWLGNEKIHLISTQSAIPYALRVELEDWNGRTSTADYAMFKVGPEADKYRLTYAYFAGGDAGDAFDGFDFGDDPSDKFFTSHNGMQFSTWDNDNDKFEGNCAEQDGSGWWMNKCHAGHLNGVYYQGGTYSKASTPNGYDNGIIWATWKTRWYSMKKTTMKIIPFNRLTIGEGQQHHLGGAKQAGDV
Nature of the assay: Factor XIIIa-mediated incorporation of FITC-labeled thymosin β4 into fibrinogen (spectrophotometric). Format: biochemical. How it is done:
Reactions of incorporation of FITC-labeled and unlabeled thymosin β4 into fibrinogen and fibrin were performed in Eppendorf tubes containing a mixture of fibrinogen at 3 mg/mL (9 μM) and thymosin β4 or FITC-labeled thymosin β4 at […] (30 μM) in 100 μL TBS with 2.5 mM CaCl2. The reactions were initiated by addition of FXIIIa(Ca) or FXIIIa(Thr) to final concentration of 30 μg/mL. The final concentration of thrombin in the FXIIIa(Thr)-containing mixtures was made at 2.5 NIH u/mL, sufficient to rapidly form fibrin clot which was observed visually. The reactions with FITC-labeled thymosin β4 lasted for 4 hours at 37° C. in the dark and were stopped by heat inactiviation of the enzymes in boiling water for 5 min during fibrinogen and fibrin denatured and precipitated. The pellets were centrifuged and washed 3 times in TBS and then solubilized. The amounts of fibrin(ogen) and FITC-labeled thymosin β4 in the solubilized pellet were determined spectrophotomertrically using absorption molar coefficients E280,1%=15.0 and ε495=72,000 M^−1cm^−1, respectively. To prepare samples with unlabeled thymosin β4 for analysis by SDS-PAGE and Western blot the reaction mixtures at the indicated time were heat-inactivated as above and solubilized by addition of sample buffer (Invitrogen) containing SDS and reducing agent.

thymosin β4: the “degree of incorporation into fibrinogen” value (fibrinogen 9 μM, thymosin β4 30 μM, factor XIIIa, 4 hours, 37° C.) came out at 0.2 moles per mole. The “molar incorporation ratio of thymosin β4 to fibrinogen” value (physiological concentrations of fibrin(ogen) and factor XIII) was 0.2.
